Patent US20230174669A1 (ALIADA THERAPEUTICS, published 2023)
Changes are numbered by the printed parent chain.

T1: human CD98hc (human, UniProt P08195 105-529)
T1 construct: Soluble protein flowed over captured tripod mAbs in SPR; also called huCD98hc; human CD98 heavy chain
T1 sequence: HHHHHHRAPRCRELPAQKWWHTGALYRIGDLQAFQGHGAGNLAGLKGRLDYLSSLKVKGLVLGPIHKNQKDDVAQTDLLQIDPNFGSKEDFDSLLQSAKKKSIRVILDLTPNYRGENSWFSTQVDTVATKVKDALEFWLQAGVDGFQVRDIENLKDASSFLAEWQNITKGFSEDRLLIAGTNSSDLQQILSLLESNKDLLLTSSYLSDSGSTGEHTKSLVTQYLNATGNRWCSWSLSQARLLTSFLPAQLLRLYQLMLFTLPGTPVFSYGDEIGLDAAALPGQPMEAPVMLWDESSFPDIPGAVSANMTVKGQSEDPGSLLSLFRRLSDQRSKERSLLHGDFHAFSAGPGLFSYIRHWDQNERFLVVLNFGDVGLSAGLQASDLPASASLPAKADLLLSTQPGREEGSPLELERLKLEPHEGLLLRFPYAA

B1: BBBB1201 (bispecific antibody)
heavy 1: EVQLVESGGGLVKPGGSLRLSCAASGFTFSSYAMSWVRQAPGKGLEWVASISKGGNTYYPDSVKGRFTISRDNAKNSLYLQMNSLRAEDTAVYYCARGWGDYGWFAYWGQVTLVTVSSASTKGPSVFPLAPSSKSTSGGTAALGCLVKDYFPEPVTVSWNSGALTSGVHTFPAVLQSSGLYSLSSVVTVPSSSLGTQTYICNVNHKPSNTKVDKKVEPKSCDKTHTCPPCPAPEAAGGPSVFLFPPKPKDTLYITREPEVTCVVVSVSHEDPEVKFNWYVDGVEVHNAKTKPREEQYNSTYRVVSVLTVLHQDWLNGKEYKCKVSNKALPAPIEKTISKAKGQPREPQVYVYPPSREEMTKNQVSLTCLVKGFYPSDIAVEWESNGQPENNYKTTPPVLDSDGSFALVSKLTVDKSRWQQGNVFSCSVMHEALHNHYTQKSLSLSPGGGAGGAQVQLVESGGGVVQPGRSLRLSCAASGFTFSSYGMHWVRQAPGKGLEWVAIISYDGSNKHYADSVKGRFTISRDNSKNTLYLQMNSLRAEDTAVYYCARAPSAFYFDYWGQGTLVTVSSGTEGKSSGSGSESKSTDIVMTQSPDSLAVSLGERATINCKSSQSVLFSSNNKNYLAWYQQKPGQPPKLLIYWASTRESGVPDRFSGSGSGTDFTLTISSLQAEDVAVYYCQQYYSTPPTFGQGTKVVIK
light: DIQMTQSPSSLSASVGDRVTITCKASQDINRYLNWFQQKPGKAPKTLIYRANRLLDGVPSRFSGSGSGTDFTLTISSLQPEDFATYYCQQYDEFPLTFGQGTKLEIKRTVAAPSVFIFPPSDEQLKSGTASVVCLLNNFYPREAKVQWKVDNALQSGNSQESVTEQDSKDSTYSLSSTLTLSKADYEKHKVYACEVTHQGLSSPVTKSFNRGEC
heavy 2: EVQLVESGGGLVKPGGSLRLSCAASGFTFSSYAMSWVRQAPGKGLEWVASISKGGNTYYPDSVKGRFTISRDNAKNSLYLQMNSLRAEDTAVYYCARGWGDYGWFAYWGQVTLVTVSSASTKGPSVFPLAPSSKSTSGGTAALGCLVKDYFPEPVTVSWNSGALTSGVHTFPAVLQSSGLYSLSSVVTVPSSSLGTQTYICNVNHKPSNTKVDKKVEPKSCDKTHTCPPCPAPEAAGGPSVFLFPPKPKDTLYITREPEVTCVVVSVSHEDPEVKFNWYVDGVEVHNAKTKPREEQYNSTYRVVSVLTVLHQDWLNGKEYKCKVSNKALPAPIEKTISKAKGQPREPQVYVLPPSREEMTKNQVSLLCLVKGFYPSDIAVEWESNGQPENNYLTWPPVLDSDGSFFLYSKLTVDKSRWQQGNVFSCSVMHEALHNHYTQKSLSLSPG
B2: BBBB1202 (bispecific antibody)
heavy 1: B1 heavy 1 with A555H
light: B1 light
heavy 2: B1 heavy 2
B3: BBBB1067 (bispecific antibody)
heavy 1: B1 heavy 1 with A555S
light: B1 light
heavy 2: B1 heavy 2
notes: also called tripod mAb Anti-Tau IgG1 AAS YTE with C98hc4
B4: BBBB1070 (bispecific antibody, human IgG1, kappa, L234A L235A)
heavy 1: EVQLVESGGGLVKPGGSLRLSCAASGFTFSSYAMSWVRQAPGKGLEWVASISKGGNTYYPDSVKGRFTISRDNAKNSLYLQMNSLRAEDTAVYYCARGWGDYGWFAYWGQVTLVTVSSASTKGPSVFPLAPSSKSTSGGTAALGCLVKDYFPEPVTVSWNSGALTSGVHTFPAVLQSSGLYSLSSVVTVPSSSLGTQTYICNVNHKPSNTKVDKKVEPKSCDKTHTCPPCPAPEAAGGPSVFLFPPKPKDTLYITREPEVTCVVVSVSHEDPEVKFNWYVDGVEVHNAKTKPREEQYNSTYRVVSVLTVLHQDWLNGKEYKCKVSNKALPAPIEKTISKAKGQPREPQVYVYPPSREEMTKNQVSLTCLVKGFYPSDIAVEWESNGQPENNYKTTPPVLDSDGSFALVSKLTVDKSRWQQGNVFSCSVMHEALHNHYTQKSLSLSPGGGAGGAQVQLQESGPGLVKPSETLSLTCTVSGGSISSSYWSWIRQPPGKGLEWIGYIYNSGSTNYNPSLKSRVTISVDTSKNQFSLKLSSVTAADTAVYYCARETYYFDYWGQGTLVTVSSGTEGKSSGSGSESKSTDIVMTQSQKFMSTSVGDRVSVTCKASQNVGINVAWYQKKPGQPPKALIYSAAYRYSGVPDRFTGSGSGTDFTLTISNVQSEDLAEYFCQQYNSYPLTFGSGTKLEIK
light: B1 light
heavy 2: B1 heavy 2
notes: also called tripod mAb Anti-Tau IgG1 AAS YTE with C98hc5
B5: BBBB1061 (bispecific antibody, human IgG1, kappa, L234A L235A)
heavy 1: EVQLVESGGGLVKPGGSLRLSCAASGFTFSSYAMSWVRQAPGKGLEWVASISKGGNTYYPDSVKGRFTISRDNAKNSLYLQMNSLRAEDTAVYYCARGWGDYGWFAYWGQVTLVTVSSASTKGPSVFPLAPSSKSTSGGTAALGCLVKDYFPEPVTVSWNSGALTSGVHTFPAVLQSSGLYSLSSVVTVPSSSLGTQTYICNVNHKPSNTKVDKKVEPKSCDKTHTCPPCPAPEAAGGPSVFLFPPKPKDTLYITREPEVTCVVVSVSHEDPEVKFNWYVDGVEVHNAKTKPREEQYNSTYRVVSVLTVLHQDWLNGKEYKCKVSNKALPAPIEKTISKAKGQPREPQVYVYPPSREEMTKNQVSLTCLVKGFYPSDIAVEWESNGQPENNYKTTPPVLDSDGSFALVSKLTVDKSRWQQGNVFSCSVMHEALHNHYTQKSLSLSPGGGAGGAQVQLVESGGGLVQAGGSLRLSCAASGRAFSSNGMGWFRQAPGKEREFVATISCSGTSTYYADSVKGRFTISRDNAKNTVYLQMNSLKPEDTAVYFCAADTRHCMGYTKDEGYAYWGQGTQVTVSS
light: B1 light
heavy 2: B1 heavy 2
notes: also called tripod mAb Anti-Tau IgG1 AAS YTE with C98hc2
B6: BBBB1065 (bispecific antibody)
heavy 1: B1 heavy 1 with A235L, A236L, Y253M, T255S, E257T, S266D, A555S
light: B1 light
heavy 2: B1 heavy 2 with A235L, A236L, Y253M, T255S, E257T, S266D
notes: also called tripod mAb Anti-Tau IgG1 with C98hc4

biological target: T1, human CD98hc; assay: SPR ProteOn, mAb captured by anti-Fc, huCD98hc flowed, 1:1 model
Experimental: An Fc capture surface was generated by coupling anti-IgG Fc mAb (Jackson ImmunoResearch) to a GLC chip (BioRad) using the amine-coupling chemistry (BioRad).
The chip surface was regenerated with two 18 second pulses of 100 mM H3PO4 (Sigma) at 100 μL/min. The collected data were processed using ProteOn Manager software V3.1.0.6 (BioRad). First, the data was corrected for background using inter-spots. Then, double reference subtraction of the data was performed by using the buffer injection for analyte injections. The kinetic analysis of the data was performed using a Langmuir 1:1 binding model.

Row | Binder | Kd [nM] | koff [s⁻¹] | kon [M⁻¹ s⁻¹]
1 | B1 | 16.9 | 0.006 | 357000
2 | B2 | 52.9 | 0.00882 | 167000

biological target: T1, human CD98hc; assay: SPR ProteOn, anti-Tau tripod mAb captured by anti-Fc, huCD98hc flowed

Row | Binder | Kd [nM] | koff [s⁻¹] | kon [M⁻¹ s⁻¹]
3 | B3 | 3.15 | 0.00138 | 439000
4 | B4 | 118 | 0.00648 | 55700
5 | B5 | 1.46 | 0.00135 | 935000
6 | B6 | 2.96 | 0.00139 | 470000
